# Test results from patent publication US20170198014A1 (UNIVERSITY WASHINGTON THROUGH ITS CENTER FOR …, published 2017).
# B1: Hsc1 (SEQ ID NO:135) fused to HAA.1c (SEQ ID NO:227) via the triLong linker (SEQ ID NO: 352), trimer (designed binder)
# chain: MEEVVLITVPSEEVARTIAKALVEERLAACVNIVPGLTSIYRWQGEVVEDQELLLLVKTTTHAFPKLKERVKALHPYTVPEIVALPIAQGNQEYLDWLRENAGGGGSGGSGIVNVPNCNTTKYQQLARTAVAIYNYHEQAHLTFVENLNCKEQLGEGDYYYITLAATDDAGKKAIYEAKIGVVESAGWTGVEEFKLV
# B2: HAA.1 c fused to Hsc1-EA via a triLong linker, trimer (designed binder)
# chain: MEEVVLITVPSEEVARTIAKALVEERLAACVNIVPGLTSIYRWQGEVVEDQELLLLVKTTTHAFPKLKERVKALHPYTVPEIVALPIAQGNQEYLDWLRENAGGGGSGGSGIVNVPNCNTTKYQQLARTAVAIYNYHEQAHLTFVENLNCKEQGNYYYITLAATDDAGKKAIYEAKIGVVESAGWTGVEEFKLV
# What was measured:
# [1] = molecular target: T1, hemagglutinin H3 (A/Hong Kong/1/1968-H3N2) (influenza A virus A/Hong Kong/1/1968 …, UniProt Q91MA7 27-521); assay: BLI (Octet), biotinylated HA on streptavidin sensors
# [2] = molecular target: hemagglutinin H1 (A/Solomon Islands/3/2006) (influenza A virus A/Solomon …); assay: as above
# [3] = molecular target: T1, hemagglutinin H3 (A/Hong …); assay: BLI (FIG. 5)
binder,measurement,setting,value
B1,Kd,[1],< 1 nM
same,Kd,[2],< 1 nM
B2,Kd,[3],< 1 nM
